The numbers were not newly measured in article PMC3161823, which cites them from elsewhere.

For the series, the target named is Complement factor H (Homo sapiens) (UniProt P08603).
Sequence of Complement factor H (Homo sapiens) (P08603 19-1231): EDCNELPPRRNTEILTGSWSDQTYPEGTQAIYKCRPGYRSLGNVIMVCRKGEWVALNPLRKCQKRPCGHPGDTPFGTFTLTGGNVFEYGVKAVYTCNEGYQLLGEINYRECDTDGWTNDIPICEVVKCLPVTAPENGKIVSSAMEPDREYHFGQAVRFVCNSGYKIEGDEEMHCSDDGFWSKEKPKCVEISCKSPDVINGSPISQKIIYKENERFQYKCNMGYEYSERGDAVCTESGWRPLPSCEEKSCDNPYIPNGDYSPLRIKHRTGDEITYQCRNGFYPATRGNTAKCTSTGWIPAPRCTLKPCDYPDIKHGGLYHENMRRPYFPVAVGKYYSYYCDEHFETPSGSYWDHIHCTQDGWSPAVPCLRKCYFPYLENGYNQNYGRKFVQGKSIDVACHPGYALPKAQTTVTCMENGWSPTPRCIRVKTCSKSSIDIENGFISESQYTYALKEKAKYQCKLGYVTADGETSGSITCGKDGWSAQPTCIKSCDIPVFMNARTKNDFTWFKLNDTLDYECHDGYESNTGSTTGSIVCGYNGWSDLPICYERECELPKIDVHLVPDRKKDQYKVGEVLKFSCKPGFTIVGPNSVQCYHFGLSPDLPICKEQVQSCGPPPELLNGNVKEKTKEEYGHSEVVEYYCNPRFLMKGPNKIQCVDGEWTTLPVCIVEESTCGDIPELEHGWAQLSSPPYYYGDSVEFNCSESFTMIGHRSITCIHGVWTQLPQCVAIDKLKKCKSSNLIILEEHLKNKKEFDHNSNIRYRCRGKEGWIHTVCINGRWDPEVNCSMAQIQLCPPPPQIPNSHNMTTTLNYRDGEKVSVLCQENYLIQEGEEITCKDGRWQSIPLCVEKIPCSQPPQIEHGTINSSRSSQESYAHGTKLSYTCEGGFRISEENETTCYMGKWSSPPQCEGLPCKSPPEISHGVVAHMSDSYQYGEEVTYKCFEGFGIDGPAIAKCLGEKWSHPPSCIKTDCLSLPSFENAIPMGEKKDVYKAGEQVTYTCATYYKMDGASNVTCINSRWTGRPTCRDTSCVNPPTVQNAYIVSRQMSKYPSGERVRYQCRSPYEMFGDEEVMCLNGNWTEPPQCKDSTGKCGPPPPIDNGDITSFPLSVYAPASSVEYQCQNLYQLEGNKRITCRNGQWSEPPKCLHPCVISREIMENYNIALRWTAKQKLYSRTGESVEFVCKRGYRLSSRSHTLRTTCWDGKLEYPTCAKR

Sequence of PTX3 (P26022 18-381): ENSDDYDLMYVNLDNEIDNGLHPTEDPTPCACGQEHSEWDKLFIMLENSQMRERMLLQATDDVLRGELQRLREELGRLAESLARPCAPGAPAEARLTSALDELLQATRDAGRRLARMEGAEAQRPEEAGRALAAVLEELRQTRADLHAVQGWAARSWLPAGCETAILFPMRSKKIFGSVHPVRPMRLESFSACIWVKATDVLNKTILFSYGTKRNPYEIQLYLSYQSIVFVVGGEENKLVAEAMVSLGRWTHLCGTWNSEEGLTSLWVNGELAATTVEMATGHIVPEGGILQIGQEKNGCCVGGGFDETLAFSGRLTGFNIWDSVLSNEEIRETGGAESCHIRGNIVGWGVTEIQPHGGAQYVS

In the case of PTX3 (from UniProt P26022), the Kd (usually the free concentration of one partner at which half of the binding sites on the other are occupied at equilibrium, for simple one-to-one binding) was 110 nM.
